Data from patent publication US20260274955A1 (JANUX THERAPEUTICS, published 2026).

Legend:
[1] = target: Anti-CD28 Fab (SEQ ID NOs: 202, 203); experiment: phage binding ELISA on captured Fab, competitor CD28 antigen;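 note: clonal phage supernatant binding in wells preincubated with CD28 antigen in blocking buffer, detected by HRP-conjugated anti-M13 antibody ELISA, compared with blocking buffer alone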
Experimental: (§1) Clonal phage were harvested as crude supernatants and screened via standard ELISAs. […] Prior to the addition of clonal phage, wells were incubated with blocking buffer and CD28 antigen or blocking buffer alone. Without washing or aspirating, clonal phage supernatants were then added to the wells and incubated for a short time. Wells were then washed followed by detection of bound phage using a horse radish conjugated anti-M13 antibody.

[2] = target: Anti-CD28 Fab (SEQ ID NOs: 202, 203); experiment: phage binding ELISA on captured Fab;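 note: clonal phage supernatants added briefly to wells pre-incubated with CD28 antigen or with blocking buffer only, then washed, bound phage read by ELISA using HRP-coupled anti-M13 antibody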
Experimental: as §1

Chain of Anti-CD28 Fab (SEQ ID NOs: 202, 203) (VH, as listed by the source, chain 1 of 2): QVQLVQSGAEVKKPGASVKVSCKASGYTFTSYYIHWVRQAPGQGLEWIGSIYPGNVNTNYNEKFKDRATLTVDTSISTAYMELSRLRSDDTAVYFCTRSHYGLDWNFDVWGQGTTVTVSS
Chain of Anti-CD28 Fab (SEQ ID NOs: 202, 203) (VL, as listed by the source, chain 2 of 2): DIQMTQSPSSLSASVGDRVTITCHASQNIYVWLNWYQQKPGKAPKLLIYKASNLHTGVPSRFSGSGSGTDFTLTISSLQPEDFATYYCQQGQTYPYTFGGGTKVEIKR

Binder | Anti-CD28 Fab signal in the presence of CD28 [1] | Anti-CD28 Fab (SEQ ID NOs: 202, 203) signal [2]
YCEGHFGMYMSKCL [Phage-833] | 0.07 | 0.73
YCQGHSVQYMAKCL [Phage-825] | 0.06 | 0.77
YCVGHSPEYIWKCL [Phage-796] | 0.06 | 0.92
YCEGHSSEYMVKCL [Phage-826] | 0.06 | 0.77
YCQGHALQYLQKCL [Phage-835] | 0.08 | 0.71
YCDGHSFEYMAKCL [Phage-794] | 0.06 | 0.92
YCDGHSMEYMAKCL [Phage-821] | 0.07 | 0.8
YCEGHLPMYMQKCM [Phage-818] | 0.07 | 0.82
YCDGHVTEYMAKCL [Phage-861] | 0.07 | 0.58
YCDGHELMYMEKCL [Phage-797] | 0.06 | 0.92
YCAGHSAEYIQKCL [Phage-823] | 0.08 | 0.8
YCAGHSVQYMYKCL [Phage-832] | 0.06 | 0.74
YCDGHMDAYMSKCL [Phage-847] | 0.06 | 0.65
YCDGHSMTYMAKCI [Phage-815] | 0.06 | 0.84
YCAGHAAIYMAKCL [Phage-814] | 0.07 | 0.85
YCAGHSAQYMWKCL [Phage-793] | 0.07 | 0.92
YCEGHSRQYMEKCM [Phage-852] | 0.33 | 0.63
YCDGHLPRFMVKCL [Phage-839] | 0.07 | 0.69
YCAGHMPQYMSKCL [Phage-834] | 0.05 | 0.72
YCDGHDPQYIRKCI [Phage-817] | 0.06 | 0.83
YCAGHLPQYVSKCL [Phage-836] | 0.06 | 0.7
YCEGHLAVHMSKCL [Phage-854] | 0.06 | 0.62
YCDGHSAEYLGKCL [Phage-795] | 0.07 | 0.92
YCEGHAREYMDKCL [Phage-820] | 0.07 | 0.8
YCEGHAQQYMLKCL [Phage-831] | 0.05 | 0.74
YCEGHAQMYMLKCL [Phage-851] | 0.06 | 0.64

Binder | Anti-CD28 Fab signal in the presence of CD28 [1] | Anti-CD28 Fab (SEQ ID NOs: 202, 203) signal [2]
YCDGHKWEYLQKCL [Phage-816] | 0.06 | 0.84
YCDGHTGVYKWKCI [Phage-827] | 0.06 | 0.76
YCDGHAAWYLQKCL [Phage-850] | 0.07 | 0.64
YCVGHLPLYMPNCL [Phage-842] | 0.11 | 0.68
YCAGHSLQYLGKCY [Phage-813] | 0.06 | 0.86
YCQGHAPWYMVKCL [Phage-840] | 0.08 | 0.69
YCDGHNPVYLAKCL [Phage-830] | 0.08 | 0.74
YCAGHTQEYMLKCL [Phage-824] | 0.06 | 0.78
YCEGHMSEYMRKCL [Phage-841] | 0.1 | 0.69
YCMGHSAEYMGKCL [Phage-848] | 0.06 | 0.64
YCSGHLPMYMAKCL [Phage-853] | 0.13 | 0.62
YCDGHHLEYIDKCL [Phage-838] | 0.06 | 0.69
YCEGHAAVYMHKCL [Phage-846] | 0.09 | 0.67
YCDGHSPQYLWKCL [Phage-822] | 0.05 | 0.8
YCEGHLQEYMGKCL [Phage-860] | 0.25 | 0.58
YCDGHIEMYMSKCM [Phage-855] | 0.06 | 0.61
YCEGHIGDYIAKCL [Phage-857] | 0.36 | 0.61
YCDGHEPQYMTKCL [Phage-843] | 0.1 | 0.68
YCDGHAWWYMEKCL [Phage-849] | 0.06 | 0.64
YCDGHAGIYVLKCL [Phage-829] | 0.08 | 0.75
YCEGHLPWYMSKCL [Phage-837] | 0.09 | 0.69
YCAGHIGEYMDKCL [Phage-828] | 0.58 | 0.75
YCQGHSELYMSKCL [Phage-858] | 0.08 | 0.6
YCEGHLPQYLAKCY [Phage-844] | 0.08 | 0.67
YCDGHTPQFRAKCL [Phage-859] | 0.07 | 0.59
YCAGHLEMYMSKCL [Phage-798] | 0.07 | 0.91
